From patent US20230349919A1

Experiments:
[1] = molecular target: IgE (lambda light chain) secreted by U266 cells; experiment: flow cytometry, U266 cells alone with the StAv-FcεRIα capture complex; x axis Secreted IgE, y axis IgM
[2] = molecular target: IgE (lambda light chain) secreted by U266 cells; experiment: flow cytometry, Ramos + U266 mixed 100X1 with the StAv-FcεRIα capture complex; 94.6 % of the cells lie in the IgM+ gate at low secreted IgE
[3] = molecular target: Secreted IgG; experiment: flow cytometry, human bone marrow plasma cells (CD20- CD38++) with NHS-biotin, StAv-anti-human Igk and anti-IgG; controls in FIG. 21B (D00065): without NHS-Biotin 1.2%, without StAv-IgKappa 0.72%, without anti-IgG 0%

Substance | % of cells in the secreted IgE+ / IgM- gate [1] | % of cells in the secreted IgE+ / IgM- gate [2] | % IgG+ of plasma cells [3]
secreted IgE capture reagent: streptavidin conjugated to the ectodomain of the high affinity IgE receptor FcεRIα (from UniProt P12319 26-205) | 94.9% | 2.4% | –
streptavidin coupled to anti-human Igk (antibody) | – | – | 5.2%
